Measurements taken from US20250145690A1 (US Dept. of Health and Human Services, published 2025).
Positions count from the first letter of the chain named.

Tests used:
Assay in all cases: bead flow cytometry, AUC minus CD4
[1] = molecular target: SARS-CoV-2 spike receptor binding domain (RBD), recombinant (SARS-CoV-2, UniProt P0DTC2 319-541)
[2] = molecular target: SARS-CoV-2 spike N-terminal domain (NTD), recombinant (SARS-CoV-2, UniProt P0DTC2 14-305)
[3] = molecular target: T1, HCoV-229E spike protein (Sino Biological 40605-V08B) (HCoV-229E, UniProt P15423 16-1115)
T1 sequence: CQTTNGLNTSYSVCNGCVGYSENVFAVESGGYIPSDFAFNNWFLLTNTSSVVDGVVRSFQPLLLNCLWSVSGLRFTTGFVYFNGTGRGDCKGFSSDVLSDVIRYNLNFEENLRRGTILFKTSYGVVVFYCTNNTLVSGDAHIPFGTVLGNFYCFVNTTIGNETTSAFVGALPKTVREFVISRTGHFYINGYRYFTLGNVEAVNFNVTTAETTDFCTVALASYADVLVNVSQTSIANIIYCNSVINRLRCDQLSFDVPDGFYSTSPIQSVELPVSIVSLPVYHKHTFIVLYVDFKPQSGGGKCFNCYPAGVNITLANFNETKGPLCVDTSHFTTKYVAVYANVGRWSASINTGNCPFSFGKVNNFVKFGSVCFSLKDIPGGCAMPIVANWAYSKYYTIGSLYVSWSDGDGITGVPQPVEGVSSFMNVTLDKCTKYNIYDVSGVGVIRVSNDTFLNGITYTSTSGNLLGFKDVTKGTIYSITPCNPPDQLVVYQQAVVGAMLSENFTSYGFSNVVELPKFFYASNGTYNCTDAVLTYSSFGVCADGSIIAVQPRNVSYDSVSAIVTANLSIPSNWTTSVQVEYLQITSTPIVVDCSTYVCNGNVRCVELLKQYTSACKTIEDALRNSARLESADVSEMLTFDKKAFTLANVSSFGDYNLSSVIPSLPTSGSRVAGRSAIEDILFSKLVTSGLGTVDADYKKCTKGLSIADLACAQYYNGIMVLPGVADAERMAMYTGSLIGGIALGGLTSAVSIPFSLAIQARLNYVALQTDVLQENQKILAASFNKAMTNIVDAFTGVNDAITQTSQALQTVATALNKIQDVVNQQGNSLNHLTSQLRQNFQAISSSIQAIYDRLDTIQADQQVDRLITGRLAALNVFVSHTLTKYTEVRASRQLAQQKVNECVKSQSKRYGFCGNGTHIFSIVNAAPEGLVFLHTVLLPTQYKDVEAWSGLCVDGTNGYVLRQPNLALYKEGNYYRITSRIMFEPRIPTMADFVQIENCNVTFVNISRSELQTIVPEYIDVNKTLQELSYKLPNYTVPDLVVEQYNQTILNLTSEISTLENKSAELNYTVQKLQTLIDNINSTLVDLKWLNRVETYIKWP

[4] = molecular target: T2, HCoV-NL63 spike protein (Sino Biological 40604-V08B) (HCoV-NL63, UniProt Q6Q1S2 19-1296)
T2 sequence: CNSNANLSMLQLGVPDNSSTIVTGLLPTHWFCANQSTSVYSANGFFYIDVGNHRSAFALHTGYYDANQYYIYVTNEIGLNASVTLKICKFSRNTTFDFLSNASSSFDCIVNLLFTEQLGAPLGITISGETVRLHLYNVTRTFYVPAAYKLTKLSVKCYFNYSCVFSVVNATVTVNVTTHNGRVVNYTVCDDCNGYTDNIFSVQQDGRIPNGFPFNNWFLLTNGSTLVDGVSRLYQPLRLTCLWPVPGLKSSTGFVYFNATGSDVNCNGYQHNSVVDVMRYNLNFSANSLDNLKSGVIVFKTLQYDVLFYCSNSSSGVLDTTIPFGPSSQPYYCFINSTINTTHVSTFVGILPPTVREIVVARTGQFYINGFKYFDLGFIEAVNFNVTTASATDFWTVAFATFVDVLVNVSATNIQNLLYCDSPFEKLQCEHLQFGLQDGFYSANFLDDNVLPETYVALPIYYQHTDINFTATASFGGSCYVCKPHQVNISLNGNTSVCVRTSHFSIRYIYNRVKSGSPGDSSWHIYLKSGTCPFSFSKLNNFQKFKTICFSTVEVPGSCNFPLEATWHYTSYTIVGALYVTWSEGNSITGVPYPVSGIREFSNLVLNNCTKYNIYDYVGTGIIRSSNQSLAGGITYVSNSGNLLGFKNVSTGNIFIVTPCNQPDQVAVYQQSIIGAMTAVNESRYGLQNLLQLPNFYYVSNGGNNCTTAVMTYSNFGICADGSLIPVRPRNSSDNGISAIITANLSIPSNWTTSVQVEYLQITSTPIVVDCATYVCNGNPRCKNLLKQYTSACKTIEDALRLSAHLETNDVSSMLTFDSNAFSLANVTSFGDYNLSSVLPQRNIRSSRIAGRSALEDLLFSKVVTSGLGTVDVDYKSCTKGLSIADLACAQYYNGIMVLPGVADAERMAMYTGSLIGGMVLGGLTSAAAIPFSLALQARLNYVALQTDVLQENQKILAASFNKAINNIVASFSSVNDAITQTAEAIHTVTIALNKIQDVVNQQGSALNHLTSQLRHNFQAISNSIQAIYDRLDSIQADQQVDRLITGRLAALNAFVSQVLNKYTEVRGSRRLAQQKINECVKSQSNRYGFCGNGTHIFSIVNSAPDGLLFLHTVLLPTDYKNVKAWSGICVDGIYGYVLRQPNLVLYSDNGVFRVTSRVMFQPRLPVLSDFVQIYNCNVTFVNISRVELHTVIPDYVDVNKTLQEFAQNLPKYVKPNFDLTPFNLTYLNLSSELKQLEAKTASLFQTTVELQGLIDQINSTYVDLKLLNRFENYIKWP

Measured: binding result

B1: COV77-76 (antibody, V domains shown)
VH: QVQLQESGPGLVKPSETLSLTCTVSGGSISSFYWSWIRQPPGKRLEWIGYIYYRGSTNYNPSLKSRVTMSVDTSKNQFSLKLSSVTAADTAVYYCARELPNNWLDPWGQGTLVTVSS
VL: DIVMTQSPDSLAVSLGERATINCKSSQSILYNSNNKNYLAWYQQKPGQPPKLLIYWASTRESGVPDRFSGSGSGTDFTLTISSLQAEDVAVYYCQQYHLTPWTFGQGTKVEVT
no binding (tested: 200 µg/mL): all assays above

B2: COV89-03 (antibody, V domains shown)
VH: B1 VH with S30R, F32N, I48L, R54S, M69I, K81N, A96V, L99M, N101Y, L104I
VL: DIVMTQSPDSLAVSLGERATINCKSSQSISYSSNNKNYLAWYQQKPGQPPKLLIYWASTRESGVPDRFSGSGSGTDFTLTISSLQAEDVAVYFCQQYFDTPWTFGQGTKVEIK
no binding (tested: 200 µg/mL): all assays above

B3: COV77-14 (antibody, V domains shown)
VH: QVQLQESGPGLVKASQTLSLTCAVSGGSISSGDYYWTWIRSHPGKGLEWIAYIYYNGRTYYNPSLKSRLTISIDRSKNEFSLKVRSVTAADSAAYYCARGRLGFCAAGSCFLDSLDFWGQGTLVTVSS
VL: EIVMTQSPATLSVSPGERVTLSCRASESISNNLAWYQQKPGQAPRLLIYGASTRATGIPARFSGSGSGTEFALIISSLQSEDFAVYFCQQYYNWLLTFGGGTKVEIK
no binding (tested: 200 µg/mL): all assays above

B4: COV77-46 (antibody, V domains shown)
VH: QVQLQESGPGLVKPSQPLSLTCAVSGDSISSGGNYWSWIRQHPGKGLECIAYFYYTGRTYYNPSLKSRVTISLDTSKNQFSLKVSSVTAADTAVYFCARGRLGHCGGGSCFLDPLDYWGQGSLVTVSS
VL: EIVMTQSPATLSVSPGERATLSCRASERISSNLAWSQHKVGQAPRLLIYGASTRATGIPARFSGSGSGTEFTLTISSLQSEDFAVYYCHQYHNWLLTFGGGTKVEIK
no binding (tested: 200 µg/mL): all assays above

B5: COV93-60 (antibody, V domains shown)
VH: QVQLQESGPGLVKPSETLFLTCAVSGGSINSSYWSWIRQPPGKGLEWIGYIYYRGSTNYNPSLKSRVTISVDTSKNQFSLKLNSVTAADTAIYYCARENLWNWFDPWGQGILVTVSS
VL: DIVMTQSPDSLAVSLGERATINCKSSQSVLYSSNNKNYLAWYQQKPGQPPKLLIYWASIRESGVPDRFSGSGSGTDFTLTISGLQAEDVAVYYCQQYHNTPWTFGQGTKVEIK
no binding (tested: 200 µg/mL): all assays above

B6: COV93-61 (antibody, V domains shown)
VH: EVQLVQSGAEVKKPGESLKISCKGSGYSFTTFWIGWVRQMPGKGLEWVGVIYPDDSDTRYSPSFQGQVTMSADKSINTAYLQWSSLKASDTAVYYCARRNCDAALCYLGTYDYWGQGTVVTVSS
VL: QSALTQPPSASGSPGQSVTISCTGTISDVGRYDFVSWYQHHPGKAPKLIIYEVTKRPSGVPDRFSGSKSGNTASLTVSGLQAEDEADYYCNSYAGHNNFVIFGGGTKLTVL
no binding (tested: 200 µg/mL): all assays above

B7: COV77-43 (antibody, V domains shown)
VH: QVQLVESGGGVVQPGRSLRLSCSASGFTFSDYGMNWVRQAPGKGLEWVAMIWYDGSNYFYRDSVKGRFAISRDNSKNMVFLQMDNLRAEDTAVYFCARGTHFWSGLSLDAFDMWGQGTVVTVSS
VL: EIVMTQSPLSLPVTPGEPASISCRSSRSLLHYNGHNYLDWYLQKPGQSPQLLIYLGSNRAPGVPDRFSGSGSGTDFTLKISRVEAEDVGVYYCMQALQLNLITFGQGTRLEIK
no binding (tested: 200 µg/mL): all assays above
